Reference: publication PMC5434554, “Structural similarities and functional differences clarify evolutionary relationships between tRNA healing enzymes and the myelin enzyme CNPase” (BMC Biochemistry, 2017)

Substrate: NC(=O)c1ccc[n+]([C@@H]2O[C@H](COP(=O)(O)OP(=O)(O)OC[C@H]3O[C@@H](n4cnc5c(N)ncnc54)[C@@H]4OP(=O)(O)O[C@@H]43)[C@@H](O)[C@H]2O)c1
Experiment: purified protein
Settings: 100 mM MES pH 6.0, 3 mM MgCl2, 5 mM glucose-6-phosphate, 25 °C, CPDase site

| Protein | Km | kcat | kcat/Km |
| --- | --- | --- | --- |
| ScTrl1 CPDase (Saccharomyces cerevisiae S288C) (protein) GQADSSLTNAKQILNEIHKAYPILVPEIPKDDEIETAFRRSLDYKPTVRKIVGKGNNNQQKTPKLIKPTYISAKIENYDEIIELVKRCIASDAELTEKFKHLLASGKVQKELHITLGHVMSSREKEAKKLWKSYCNRYTDQITEYNNNRIENAQGSGNNQNTQVKTTDKLNFRLEKLCWDEKIIAIVVELSKDKDGCIIDENNEKIKGLCCQNKIPHITLCKLESGVKAVYSNVLCEKVESAEVDENIKVVKLDNSKEFVGSVYLNF | 237 ± 27 µM | 275 s⁻¹ | 1.16e+06 M⁻¹ s⁻¹ |
| ScTrl1 PNK/CPDase (Saccharomyces cerevisiae S288C) (protein) RTKFLIFPISVIGCGKTTTSQTLVNLFPDSWGHIQNDDITGKDKSQLMKKSLELLSKKEIKCVIVDRNNHQFRERKQLFEWLNELKEDYLVYDTNIKVIGVSFAPYDKLSEIRDITLQRVIKRGNNHQSIKWDELGEKKVVGIMNGFLKRYQPVNLDKSPDNMFDLMIELDFGQADSSLTNAKQILNEIHKAYPILVPEIPKDDEIETAFRRSLDYKPTVRKIVGKGNNNQQKTPKLIKPTYISAKIENYDEIIELVKRCIASDAELTEKFKHLLASGKVQKELHITLGHVMSSREKEAKKLWKSYCNRYTDQITEYNNNRIENAQGSGNNQNTQVKTTDKLNFRLEKLCWDEKIIAIVVELSKDKDGCIIDENNEKIKGLCCQNKIPHITLCKLESGVKAVYSNVLCEKVESAEVDENIKVVKLDNSKEFVGSVYLNF | 420 ± 35 µM | 317 s⁻¹ | 750000 M⁻¹ s⁻¹ |
